According to the DeepSol protein solubility set:

Experiment: soluble on expression in E. coli; label from the status in PepcDB or PDB records

Row | Sequence | soluble on expression in E. coli
1 | AESTLGAAAAQSGRYFGTAIASGKLGDSAYTTIASREFNMVTAENEMKIDATEPQRGQFNFSAGDRVYNWAVQNGKQVRGHTLAWHSQQPGWMQSLSGSTLRQAMIDHINGVMGHYKGKIAQWDVVSHAFSDDGSGGRRDSNLQRTGNDWIEVAFRTARAADPAAKLCYNDYNIENWTWAKTQGVYNMVRDFKQRGVPIDCVGFQSHFNSGSPYNSNFRTTLQNFAALGVDVAITELDIQGASSSTYAAVTNDCLAVSRCLGITVWGVRDTDSWRSGDTPLLFNGDGSKKAAYTAVLNALNGGSSTPPPSGGGQIKGVGSGRCLDVPNASTTDGTQVQLYDCHSATNQQWTYTDAGELRVYGDKCLDAAGTGNGTKVQIYSCWGGDNQKWRLNSDGSIVGVQSGLCLDAVGGGTANGTLIQLYSCSNGSNQRWTRT | soluble
2 | MGSDKIHHHHHHMISEYEDIGLHNTCSEDGSFDVVLDSITNIAKYGMGIIAGVFIDMYSIIGNTDSKTIYTVRKGTLADYNARIIARSISGQVINTDPDTVVKMAEEGHMGLVGNEVQVGISYAEFAERLGIYAASCLIAARDQSFRSVLDQYQKGIEFIARNPEVSAEIISRKSNYYDEKTMKRIIGIYRHRLTTLRSDLERSISVYSAVEPSVYRLKILG | not soluble
3 | SGGGGGVLWDTPSPKEYKKGDTTTGVYRIMTRGLLGSYQAGAGVMVEGVFHTLWHTTKGAALMSGEGRLDPYWGSVKEDRLCYGGPWKLQHKWNGQDEVQMIVVEPGKNVKNVRTKPGVFKTPEGEIGAVTLDFPTGTSGSPIVDKNGDVIGLYGNGVIMPNGSYISAIVQGKRMDEPIPAGFEPEMLGSRSHHHHHH | soluble
4 | MGSDKIHHHHHHLRNVLPKDALLTAVDISDSMMDVARAKFLPHEQVTFQVADATTLPFENEAFDAVVCQFGVMFFDKDTAFREAYRTLGRGGRYLFSVWDSRRYNPFASLAFEVLKQFFPLNPPRFLEAPVSSFEIDPIKEALIQSGFERIVISVQGREHDILDVRTFARGLVFSPVIEEIRERGGVEPEDIIAALAEALKREYGSRPTRYPMQAILFEAEKP | not soluble
5 | SSRSGTDPQQRQQASEADAAAATFRANDHQHIRYNPLQDEWVLVSAHRMKRPWQGQVEPQLLKTVPRHDPLNPLCPGAIRANGEVNPQYDSTFLFDNDFPALQPDAPSPGPSDHPLFQAKSARGVCKVMCFHPWSDVTLPLMSVPEIRAVVDAWASVTEELGAQYPWVQIFENKGAMMGCSNPHPHCQVWASSFLPDIAQREERSQQAYKSQHGEPLLMEYSRQELLRKERLVLTSEHWLVLVPFWATWPYQTLLLPRRHVRRLPELTPAERDDLASIMKKLLTKYDNLFETSFPYSMGWHGAPTGSEAGANWDHWQLHAHYYPPLLRSATVRKFMVGYEMLAQAQRDLTPEQAAERLRALPEVHYHLGQKDRETATIA | not soluble
6 | MGSDKIHHHHHHNQFSVKCWLRYIEFKQGAPKPRLNQLYERALKLLPCSYKLWYRYLKARRAQVKHRCVTDPAYEDVNNCHERAFVFMHKMPRLWLDYCQFLMDQGRVTHTRRTFDRALRALPITQHSRIWPLYLRFLRSHPLPETAVRGYRRFLKLSPESAEEYIEYLKSSDRLDEAAQRLATVVNDERFVSKAGKSNYQLWHELCDLISQNPDKVQSLNVDAIIRGGLTRFTDQLGKLWCSLADYYIRSGHFEKARDVYEEAIRTVMTVRDFTQVFDSYAQFEESMIAAKMETASELGREEEDDVDLELRLARFEQLISRRPLLLNSVLLRQNPHHVHEWHKRVALHQGRPREIINTYTEAVQTVDPFKATGKPHTLWVAFAKFYEDNGQLDDARVILEKATKVNFKQVDDLASVWCQCGELELRHENYDEALRLLRKATALPARRAEYFDGSEPVQNRVYKSLKVWSMLADLEESLGTFQSTKAVYDRILDLRIATPQIVINYAMFLEEHKYFEESFKAYERGISLFKWPNVSDIWSTYLTKFIARYGGRKLERARDLFEQALDGCPPKYAKTLYLLYAQLEEEWGLARHAMAVYERATRAVEPAQQYDMFNIYIKRAAEIYGVTHTRGIYQKAIEVLSDEHAREMCLRFADMECKLGEIDRARAIYSFCSQICDPRTTGAFWQTWKDFEVRHGNEDTIKEMLRIRRSVQATYNTQVNFMASQMLKVSGSATGTVSDLAPGQSGMDDMKLLEQRAEQLAAEAERDQPLRAQSKILFVRSDASREELAELAQQVNPEEIQLGEDEDEDEMDLEPNEVRLEQQSVPAAVFGSLKED | not soluble
7 | MAHHHHHHMFRAARLLRGVSPFSVFLMDQKNNPSLQGVSIAKRGKMLSKMYKELSQQQRRDLQKRAEVHPSLRKSKRARPPRKTEFAEFVRQNYKVVQGLNYRKRFSALSQLYELHKPIEVQVTKALKEAKAKKVTSAKTAVKKAATKSKTAKRAKGGKSTPKKSTGKK | soluble
8 | SASLDRVKVLVLGDSGVGKSSLVHLLCQNQVLGNPSWTVGCSVDVRVHDYREGTPEEKAFYIELWDVGGSVGSASSVKSTRAVFYNSVNGIILVHDLTNKKSSQNLYRWSLEALSKDSSPTGIIVSNGDYDREQFAENAVPLLLIGTKFDQIPENKRNDVLTRTAFLSEDFNAEEINLDCTNPRYLAAGSSNAVKLSRFFDKVIEKRYFTRDPSQMQSFTDRRRFNFKSLHSD | soluble
9 | MNFKLNNTLSNEINTLIIGIPEHLNQLERISFNHIDITESLERLKHQHIIGSKVGKIYTTAFDVQDQTYRLITVGLGNLKTRSYQDMLKIWGHLFQYIKSEHIEDTYLLMDSFISKYDQLSDVLMACGIQSERATYEFDHYKSSKKAPFKTNLNLISESLIELDFIHEGISIGQSINLARDFSNMPPNVLTPQTFAEDIVNHFKNTKVKVDVKDYDTLVSEGFGLLQAVGKGSKHKPRLVTITYNGKDKDEAPIALVGKGITYDSGGYSIKTKNGMATMKFDMCGAANVVGIIEAASRLQLPVNIVGVLACAENMINEASMKPDDVFTALSGETVEVMNTDAEGRLVLADAVFYANQYQPSVIMDFATLTGAAIVALGDDKAAAFESNSKVILNDILQISSEVDEMVFELPITATERASIKHSDIADLVNHTNGQGKALFAASFVTHFSGQTPHIHFDIAGPATTNKASYNGPKGPTGFMIPTIVQWLKQQ | not soluble
10 | GPGSMSAIPPPHYVRLRRYNLSIFVHCDVHNDTVQAIKERYGKLTGHIFYNARLYLGQQSLDDFLTLYGCGIEAEGAELVVVHSKGAKGDGTSEHIWETVEEAMAAPQGDSLNSPEVTAEGTAKLDSMEAAATSNEVGNQQQQQAADARGGTGAELNVGFVGV | soluble
11 | MSPAWPLRPGQKVRVEFYKYPEEALHYFWEAEVVEVRPEGVLTLLPQGGVFHHVGKGRSLVLDHDAYVAFFPGAWYSGGPDVREGRVLEYYWNVQTPALWTGEAFRQYDLELDVKCRADHTCEVFDREEFLAKRPLYPRAWVEEAERAVEAVFRHMREGRWPVLPPGKPLPWMERI | soluble
12 | MYSGVQIRTGSNPKIRRNKIWGGQNGGILVYNSGLGCIEDNEIFDNAMAGVWIKTDSNPTLRRNKIHDGRDGGICIFNGGRGLLEENDIFRNAQAGVLISTNSHPILRKNRIFDGFAAGIEITNHATATLEGNQIFNNRFGGLFLASGVNVTMKDNKIMNNQDAIEKAVSRGQCLYKISSYTSYPMHDFYRCHTCNTTDRNAICVNCIKKCHQGHDVEFIRHDRFFCDCGAGTLSNPCTLAGEPTHDTDTLYDSAPPIESNTLQHN | soluble
13 | MWDSENIEELSLVIGIGLDKPDDENLELTQQILVPKIISAKEGSSSDPTQLSITKGKTVHQMMRTSALKHKPTFSQHLRLILLSKSVIADQIGMDAIINQFVRDNGTRRSSYVFITNGRTKDIFNMNDEGEPASNVIYDLTENNKVTIRTMEPVTLGEISEHLTSDDSFLIPHVGKENGKLAINGASIIKNKLWHRDLTPIEVQNISLFSGTVEGGVIDLKRDGHLFSYEVYSSNRKIKTAYKDGKFKFTVTRNIEGRLSEDWNPNEDSFKDSYIKSIEKTVEKRVHETVTSFITEKLQKEIKADVTGLGNEVRIHYPQKWKKISRKWDDDYFSNAEIDYRVNVIVRDFGTKGANKLEHHHHHH | not soluble
14 | SMGNPQLISAGAKFRAAVAAEQPLQVVGAITAYAAKMAEAVGFKAVYLSGGGVAANSLGIPDLGISTMDDVLVDANRITNATNLPLLVDIDTGWGGAFNIARTIRSFIKAGVGAVHLEDQVGQKRCGHRPGKECVPAGEMVDRIKAAVDARTDETFVIMARTDAAAAEGIDAAIERAIAYVEAGADMIFPEAMKTLDDYRRFKEAVKVPILANLTEFGSTPLFTLDELKGANVDIALYCCGAYRAMNKAALNFYETVRRDGTQKAAVPTMQTRAQLYDYLGYYAYEEKLDQLFNQGRN | soluble
